Laboratory results reported in patent US20070105759.

Target: human MC4 receptor (human), P32245
Test: competition
Conditions: modification not given

Chain of human MC4 receptor (human), P32245 (P32245 whole entry): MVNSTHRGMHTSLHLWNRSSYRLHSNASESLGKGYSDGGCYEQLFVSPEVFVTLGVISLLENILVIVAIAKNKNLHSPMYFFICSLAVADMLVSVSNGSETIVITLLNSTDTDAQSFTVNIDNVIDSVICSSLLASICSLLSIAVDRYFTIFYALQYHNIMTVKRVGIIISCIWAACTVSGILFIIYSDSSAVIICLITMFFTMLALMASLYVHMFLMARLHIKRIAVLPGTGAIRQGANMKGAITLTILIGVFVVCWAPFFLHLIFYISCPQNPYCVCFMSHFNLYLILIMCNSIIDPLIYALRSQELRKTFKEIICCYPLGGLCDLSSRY

- Ki: 0.41 nM
B1: Compound 77 (peptide)
chain: YRCEHFRWC
